Test results taken from publication PMC12731043.

Biological target: thrombin (factor IIa)

cysteine-rich anticoagulant protein (CRA), recombinant, mature form with C-terminal His-Tag (natural protein)
thrombin time (TT), clotting time of control plasma, preparation CRA P1 at 1 µM and 5 µM (21.8 s to 66.8 s; control without protein 14.3 s and 11.7 s): 66.8 s | thrombin time (TT), clotting time of control plasma, preparation CRA P2 at 1 µM and 5 µM (16.6 s to 30.7 s; control without protein 14.3 s and 11.7 s): 30.7 s | thrombin time (TT), clotting time of control plasma, preparation CRA P3 at 1 µM and 5 µM (20.1 s to 43.3 s; control without protein 14.3 s and 11.7 s): 43.3 s
